The values that follow come from the RNAGym collection of RNA variant scans (doi:10.7554/elife.90254).

B1: LINE1-full (parent)
chain: UACGUAGGUGGUUUUCCCCUGAUAGUGCUAAGGGGGCCUGGAAGUUUGGACUGGGCAGAGCUCAACACAGCGUGGCAAAGUGGCUGUGGCUAGACUGCCUCUCUGGAUUCCUCGUCACUCAGCAGGGCAUCUCUGAGAGAAAUGCC

Variants of B1 are the subject of this data set. Kind of data set: self-cleavage, relative activity (ratio to wild type); higher = more cleavage; in vitro, sequencing; the parent is a self-cleaving ribozyme.
Turning to UACGUAGGUGGUUUUCCCCUGAUAGUGCUAAGGGGGCCUGGAAGUUUGGACUGGGCAGAGCUCAACACAGCGUGGCAAAGCGGCUGUGGCUAGACUGCCUCUCUGGAUUCCUCGUCACUCAGCAGGGCAUCUCUGAGAGAAAAGCC [U81C U143A], the self-cleavage stood at 1.22.
Turning to UACGUAGGUGGUUUUCCCCUGAUAGUGCUAAGGGGGCCUGGAAGUUUGGACUGGGCAGAGCUCAACACAGCGUGGCAAAGUAGCUGUGGCUAGACAGCCUCUCUGGAUUCCUCGUCACUCAGCAGGGCAUCUCUGAGAGAAAUGCC [G82A U96A], the self-cleavage stood at 0.05.
UACGUAGGUGGUUUUCCCCUGAUAGUGCUAAGGGGGCCUGGAAGUUUGGACUGGGCAGAGCUCAACACAGCGUGGCAAAGGGGCUGUGGCUAGACUGCCCCUCUGGAUUCCUCGUCACUCAGCAGGGCAUCUCUGAGAGAAAUGCC [U81G U100C]: the self-cleavage came out at 1.43.
On to UACGUAGGUGGUUUUCCCCUGAUAGUGCUAAGGGGGCCUGGAAGUUUGGACUGGGCAGAGCUCAACACAGCGUGGCAAAGUAGCUGUGGCUAGACUGCCUCUCUGGGUUCCUCGUCACUCAGCAGGGCAUCUCUGAGAGAAAUGCC [G82A A107G], for which the self-cleavage amounted to 1.73.
Turning to UACGUAGGUGGUUUUCCCCUGAUAGUGCUAAGGGGGCCUGGAAGUUUGGACUGGGCAGAGCUCAACACAGCGUGGCAAAGUAGCUGUGGCUAGACUGCCUCUCUGGACUCCUCGUCACUCAGCAGGGCAUCUCUGAGAGAAAUGCC [G82A U108C], the self-cleavage was 2.48.
For UACGUAGGUGGUUUUCCCCUGAUAGUGCUAAGGGGGCCUGGAAGUUUGGACUGGGCAGAGCUCAACACAGCGUGGCAAAGGGGCUGUGGCUAGACUGCCUCUCUGGAUUCCUCGUCACCCAGCAGGGCAUCUCUGAGAGAAAUGCC [U81G U119C], the self-cleavage worked out at 1.54.
Regarding UACGUAGGUGGUUUUCCCCUGAUAGUGCUAAGGGGGCCUGGAAGUUUGGACUGGGCAGAGCUCAACACAGCGUGGCAAAGCGGCUGUGGCUAGACUGCCUCACUGGAUUCCUCGUCACUCAGCAGGGCAUCUCUGAGAGAAAUGCC [U81C U102A], the self-cleavage stood at 1.05.
UACGUAGGUGGUUUUCCCCUGAUAGUGCUAAGGGGGCCUGGAAGUUUGGACUGGGCAGAGCUCAACACAGCGUGGCAAAGCGGCUGUGGCUAGACUGCCUCCCUGGAUUCCUCGUCACUCAGCAGGGCAUCUCUGAGAGAAAUGCC [U81C U102C]: the self-cleavage was 0.72.
As to UACGUAGGUGGUUUUCCCCUGAUAGUGCUAAGGGGGCCUGGAAGUUUGGACUGGGCAGAGCUCAACACAGCGUGGCAAAGUAGCUGUGGCUAGACUGCCUCUCUGGAUUCCUCGUCACUCAGCAGUGCAUCUCUGAGAGAAAUGCC [G82A G126U], the self-cleavage was 2.04.
The result for UACGUAGGUGGUUUUCCCCUGAUAGUGCUAAGGGGGCCUGGAAGUUUGGACUGGGCAGAGCUCAACACAGCGUGGCAAAGCGGCUGUGGCUAGACUGCCUCUCUGGAUUCCACGUCACUCAGCAGGGCAUCUCUGAGAGAAAUGCC [U81C U112A] reads 1.42.
For the variant UACGUAGGUGGUUUUCCCCUGAUAGUGCUAAGGGGGCCUGGAAGUUUGGACUGGGCAGAGCUCAACACAGCGUGGCAAAGGGGCUGUGGCUAGACUGCCUCUCUGGAUUCCUCGUCACUCAGCAGGGCGUCUCUGAGAGAAAUGCC [U81G A129G], the self-cleavage worked out at 1.48.
In the case of UACGUAGGUGGUUUUCCCCUGAUAGUGCUAAGGGGGCCUGGAAGUUUGGACUGGGCAGAGCUCAACACAGCGUGGCAAAGUAGCUGUGGCUAGACUGCCUCUCUGGAUUCCUCGUCACUCAGCAGGGCAUCUCUGAGUGAAAUGCC [G82A A138U], the self-cleavage amounted to 1.9.
As for UACGUAGGUGGUUUUCCCCUGAUAGUGCUAAGGGGGCCUGGAAGUUUGGACUGGGCAGAGCUCAACACAGCGUGGCAAAGUAGCUGUGGCUAGACUGCCUCUCUGGAUUCCUCGUCACUCAGCAGGGCAUCUCUGAGGGAAAUGCC [G82A A138G], the self-cleavage turned out to be 2.26.
In the case of UACGUAGGUGGUUUUCCCCUGAUAGUGCUAAGGGGGCCUGGAAGUUUGGACUGGGCAGAGCUCAACACAGCGUGGCAAAGGGGCUGUGGCUAGACUGCCUCUCUGGAUUCCUCGUCACUCAGCAGGGCAUCUCUGAGAGGAAUGCC [U81G A140G], the self-cleavage turned out to be 1.4.
On to UACGUAGGUGGUUUUCCCCUGAUAGUGCUAAGGGGGCCUGGAAGUUUGGACUGGGCAGAGCUCAACACAGCGUGGCAAAGCGGCUGUGGCUAGACUGCCUCUCUGGAUUCCUCGUCACUCAGCAGGGCAGCUCUGAGAGAAAUGCC [U81C U130G], for which the self-cleavage is 1.84.
The result for UACGUAGGUGGUUUUCCCCUGAUAGUGCUAAGGGGGCCUGGAAGUUUGGACUGGGCAGAGCUCAACACAGCGUGGCAAAGUAGCUUUGGCUAGACUGCCUCUCUGGAUUCCUCGUCACUCAGCAGGGCAUCUCUGAGAGAAAUGCC [G82A G86U] reads 0.1.
The result for UACGUAGGUGGUUUUCCCCUGAUAGUGCUAAGGGGGCCUGGAAGUUUGGACUGGGCAGAGCUCAACACAGCGUGGCAAAGUAGCUGUGGCUAGACUGCCUCUCUGGAUUCCUCGUCACUCAGCAGGGCAUCUCUGAGAGGAAUGCC [G82A A140G] reads 0.93.
As for UACGUAGGUGGUUUUCCCCUGAUAGUGCUAAGGGGGCCUGGAAGUUUGGACUGGGCAGAGCUCAACACAGCGUGGCAAAGCGGCUGUGGCUAGACUGCCUCUCUGGAUUCCUCGUCACACAGCAGGGCAUCUCUGAGAGAAAUGCC [U81C U119A], the figure is 1.59; as for UACGUAGGUGGUUUUCCCCUGAUAGUGCUAAGGGGGCCUGGAAGUUUGGACUGGGCAGAGCUCAACACAGCGUGGCAAAGUAGCUGUGGCUAGACUGCCUCUCUGGAUUCCUCUUCACUCAGCAGGGCAUCUCUGAGAGAAAUGCC [G82A G114U], 2.07.
UACGUAGGUGGUUUUCCCCUGAUAGUGCUAAGGGGGCCUGGAAGUUUGGACUGGGCAGAGCUCAACACAGCGUGGCAAAGGGGCUGUGGCUGGACUGCCUCUCUGGAUUCCUCGUCACUCAGCAGGGCAUCUCUGAGAGAAAUGCC [U81G A92G]: the self-cleavage is 0.24.
Take UACGUAGGUGGUUUUCCCCUGAUAGUGCUAAGGGGGCCUGGAAGUUUGGACUGGGCAGAGCUCAACACAGCGUGGCAAAGUAGCUGUGGCUAGUCUGCCUCUCUGGAUUCCUCGUCACUCAGCAGGGCAUCUCUGAGAGAAAUGCC [G82A A94U]: the self-cleavage is 0.33.
For UACGUAGGUGGUUUUCCCCUGAUAGUGCUAAGGGGGCCUGGAAGUUUGGACUGGGCAGAGCUCAACACAGCGUGGCAAAGUAGCUGCGGCUAGACUGCCUCUCUGGAUUCCUCGUCACUCAGCAGGGCAUCUCUGAGAGAAAUGCC [G82A U87C], the self-cleavage stood at 0.17.
As to UACGUAGGUGGUUUUCCCCUGAUAGUGCUAAGGGGGCCUGGAAGUUUGGACUGGGCAGAGCUCAACACAGCGUGGCAAAGCGGCUGUGGCUAGACUGCCUCUCAGGAUUCCUCGUCACUCAGCAGGGCAUCUCUGAGAGAAAUGCC [U81C U104A], the self-cleavage came to 1.07.
Regarding UACGUAGGUGGUUUUCCCCUGAUAGUGCUAAGGGGGCCUGGAAGUUUGGACUGGGCAGAGCUCAACACAGCGUGGCAAAGCGGCUGUGGCUAGACUGCCUCUCUGGACUCCUCGUCACUCAGCAGGGCAUCUCUGAGAGAAAUGCC [U81C U108C], the self-cleavage was found to be 1.95.
On to UACGUAGGUGGUUUUCCCCUGAUAGUGCUAAGGGGGCCUGGAAGUUUGGACUGGGCAGAGCUCAACACAGCGUGGCAAAGGGGCUGUGGCUAGACUGCCUCUCUGGGUUCCUCGUCACUCAGCAGGGCAUCUCUGAGAGAAAUGCC [U81G A107G], for which the self-cleavage was determined as 1.01.
UACGUAGGUGGUUUUCCCCUGAUAGUGCUAAGGGGGCCUGGAAGUUUGGACUGGGCAGAGCUCAACACAGCGUGGCAAAGGGGCUGUGGCUAGACUGCCUCUCAGGAUUCCUCGUCACUCAGCAGGGCAUCUCUGAGAGAAAUGCC [U81G U104A]: the self-cleavage was 1.23.
As for UACGUAGGUGGUUUUCCCCUGAUAGUGCUAAGGGGGCCUGGAAGUUUGGACUGGGCAGAGCUCAACACAGCGUGGCAAAGCGGCUGUGGCUAGACUGCCUCUCUGGAUUCCUCGUCACUCAGCAGGGCAUCCCUGAGAGAAAUGCC [U81C U132C], the self-cleavage came out at 1.61.
The result for UACGUAGGUGGUUUUCCCCUGAUAGUGCUAAGGGGGCCUGGAAGUUUGGACUGGGCAGAGCUCAACACAGCGUGGCAAAGUAGUUGUGGCUAGACUGCCUCUCUGGAUUCCUCGUCACUCAGCAGGGCAUCUCUGAGAGAAAUGCC [G82A C84U] reads 0.51.
Turning to UACGUAGGUGGUUUUCCCCUGAUAGUGCUAAGGGGGCCUGGAAGUUUGGACUGGGCAGAGCUCAACACAGCGUGGCAAAGGGGCUGUGGCUAGACUGCCUCUCUGGAUUCCUCGUCACUCAGCAGGGCAUCUCUGGGAGAAAUGCC [U81G A136G], the self-cleavage was 1.65.
As to UACGUAGGUGGUUUUCCCCUGAUAGUGCUAAGGGGGCCUGGAAGUUUGGACUGGGCAGAGCUCAACACAGCGUGGCAAAGGGGCUGUGGCUAGACUGCCUCUCUGGAUUCCUCGUCACUCAGCAGGGCAUCUCAGAGAGAAAUGCC [U81G U134A], the self-cleavage stood at 1.
Take UACGUAGGUGGUUUUCCCCUGAUAGUGCUAAGGGGGCCUGGAAGUUUGGACUGGGCAGAGCUCAACACAGCGUGGCAAAGUAGCUGUGGCUAGACUGCCUCUCUGGAUUCCUCGUCACUCAGCGGGGCAUCUCUGAGAGAAAUGCC [G82A A124G]: the self-cleavage was 1.3.
The result for UACGUAGGUGGUUUUCCCCUGAUAGUGCUAAGGGGGCCUGGAAGUUUGGACUGGGCAGAGCUCAACACAGCGUGGCAAAGCGGCUGUGGCUAGACUGCCUCUCUGGAUUCCUCGACACUCAGCAGGGCAUCUCUGAGAGAAAUGCC [U81C U115A] reads 1.44.
As for UACGUAGGUGGUUUUCCCCUGAUAGUGCUAAGGGGGCCUGGAAGUUUGGACUGGGCAGAGCUCAACACAGCGUGGCAAAGCGGCUGUGGCUAGACUGCCUCUCUGGAUUCCUCGCCACUCAGCAGGGCAUCUCUGAGAGAAAUGCC [U81C U115C], the figure is 1.39; as for UACGUAGGUGGUUUUCCCCUGAUAGUGCUAAGGGGGCCUGGAAGUUUGGACUGGGCAGAGCUCAACACAGCGUGGCAAAGCGGCUGUGGCUAGACUGCCUCUCUGGAUUCCUCGGCACUCAGCAGGGCAUCUCUGAGAGAAAUGCC [U81C U115G], 1.1; as for UACGUAGGUGGUUUUCCCCUGAUAGUGCUAAGGGGGCCUGGAAGUUUGGACUGGGCAGAGCUCAACACAGCGUGGCAAAGGGGCUGUGGCUAGACUGCCUCUCUGGAUUCCUCGUCACUCAGCAGGGCAUCUCUGAGAGAAAUGCC [U81G], 1.32.
Regarding UACGUAGGUGGUUUUCCCCUGAUAGUGCUAAGGGGGCCUGGAAGUUUGGACUGGGCAGAGCUCAACACAGCGUGGCAAAGUAGCUGUGGCUAGACUGCCUCUCUAGAUUCCUCGUCACUCAGCAGGGCAUCUCUGAGAGAAAUGCC [G82A G105A], the self-cleavage came out at 1.95.
Take UACGUAGGUGGUUUUCCCCUGAUAGUGCUAAGGGGGCCUGGAAGUUUGGACUGGGCAGAGCUCAACACAGCGUGGCAAAGGGGCUGUGGCUAGACUGCCUCUCUGGAUUCCUCGUCUCUCAGCAGGGCAUCUCUGAGAGAAAUGCC [U81G A117U]: the self-cleavage was 1.32.
Consider UACGUAGGUGGUUUUCCCCUGAUAGUGCUAAGGGGGCCUGGAAGUUUGGACUGGGCAGAGCUCAACACAGCGUGGCAAAGUAGCUGUGGCUAGACUGCCUCACUGGAUUCCUCGUCACUCAGCAGGGCAUCUCUGAGAGAAAUGCC [G82A U102A], for which the self-cleavage is 2.12.
Turning to UACGUAGGUGGUUUUCCCCUGAUAGUGCUAAGGGGGCCUGGAAGUUUGGACUGGGCAGAGCUCAACACAGCGUGGCAAAGGGGCUGAGGCUAGACUGCCUCUCUGGAUUCCUCGUCACUCAGCAGGGCAUCUCUGAGAGAAAUGCC [U81G U87A], the self-cleavage was found to be 0.15.
